Experimental data published in US20240294622A1 (SUZHOU TRANSCENTA THERAPEUTICS, published 2024).

T1: DAN-his (Sinobiological) (human, UniProt P41271 17-181, limits assumed)
T1 construct: also called DAN (Sinobiological); human DAN-his
T1 sequence (looked up): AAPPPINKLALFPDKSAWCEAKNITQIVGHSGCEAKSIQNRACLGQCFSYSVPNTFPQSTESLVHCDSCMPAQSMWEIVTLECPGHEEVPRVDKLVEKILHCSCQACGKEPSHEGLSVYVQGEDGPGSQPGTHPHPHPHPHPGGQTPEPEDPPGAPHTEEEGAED

T2: HGREM1-His (ACRO) (human, UniProt O60565 25-184)
T2 construct: Lys25-Asp184 of NP_037504 with C-terminal polyhistidine tag (ACRO GR1-H52H3); they are put here; also called hGREM1 (ACRO); human gremlin (ACRO)
T2 sequence: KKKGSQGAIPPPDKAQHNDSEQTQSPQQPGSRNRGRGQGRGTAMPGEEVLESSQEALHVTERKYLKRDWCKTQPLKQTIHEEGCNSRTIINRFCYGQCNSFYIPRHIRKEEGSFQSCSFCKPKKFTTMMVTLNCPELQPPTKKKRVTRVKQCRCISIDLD

T3: Mouse Gremlin-His (R&D) (mouse, UniProt O70326 25-184)
T3 construct: Lys25-Asp184 with 10xHis, R&D 956-GR; also called mouse gremlin (R&D); mGREM1
T3 sequence: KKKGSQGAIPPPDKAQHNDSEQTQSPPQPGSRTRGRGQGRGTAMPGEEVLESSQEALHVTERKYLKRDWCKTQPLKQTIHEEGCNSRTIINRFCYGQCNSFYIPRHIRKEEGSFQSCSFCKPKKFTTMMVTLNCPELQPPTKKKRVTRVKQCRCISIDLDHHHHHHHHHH

T4: XM5-Fc (human (hGREM1 with residues 123-143 …))
T4 construct: also called gremlin 1-DAN fusion protein
T4 chain: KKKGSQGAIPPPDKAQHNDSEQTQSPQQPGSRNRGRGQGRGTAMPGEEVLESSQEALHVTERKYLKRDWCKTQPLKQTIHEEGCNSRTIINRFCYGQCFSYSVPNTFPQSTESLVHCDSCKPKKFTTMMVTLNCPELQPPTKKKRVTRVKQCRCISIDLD


Experiments:
DAN-his (Sinobiological) = molecular target: T1, DAN-his (Sinobiological); test: ELISA on coated DAN-his; unit from the axis Ab(nM); panel called FIG. 19C in the text
Description: (§1) Clear polystyrene plates (BEAVER) were coated with 100 μl/well of a 0.5 μg/ml human gremlin (ACRO) and DAN (Sinobiological) in high pH coating buffer overnight at 4° C. Then the plates were washed once on an automatic plate washer using PBS+0.1% Tween 20 (Sigma). 100 μl of block solution consisting of PBS+1% BSA+1% normal goat serum+0.5% Tween 20 (Sigma) was added to each well and incubated at room temperature for 2 hours. Then 100 ul of antibodies (hybridoma or chimeric antibody 36F5, chimeric antibody 67G11, chimeric antibody 42B9) in antibody dilution buffer containing PBS+1% BSA+1% normal goat serum+0.01% Tween 20 starting from 2 μg/ml (13.33 nM) and then 4 fold serial dilution were added to each well of the plate and incubated for 1 hours at room temperature. Afterward the plates were washed three times with 200 ul of PBS+0.1% Tween20 followed by adding 100 μl/well 1:10000 Goat anti mouse IgG-HRP or mouse anti-human IgG-HRP (abcam), and incubate for 1 hour at room temperature. They were then washed 3× with PBS+0.1% Tween20. Finally, 100 μl/well of TMB (InnoReagents) was added to each well and after 2 minutes add 50 ul of stop solution to each well. The plates were read on a Multiscan FC microplate reader (Thermo Scientific) at 450 nm.

HGREM1-His (ACRO) [1] = molecular target: T2, HGREM1-His (ACRO); test: ELISA on coated human Gremlin-his; unit from the axis Ab(nM); panel called FIG. 19C in the text
Description: as §1

HGREM1-His (ACRO) [2] = molecular target: T2, HGREM1-His (ACRO); test: ELISA, coated hGREM1 (ACRO)
Description: (§2) Clear polystyrene plates (BEAVER) were coated with 100 μl/well of a […] hGREM1 (ACRO) and mouse gremlin (R&D) in high pH coating buffer overnight at 4° C. Then the plates were washed once on an automatic plate washer using PBS+0.1% Tween 20 (Sigma). 100 μl of block solution consisting of PBS+1% BSA+1% normal goat serum+0.5% Tween 20 (Sigma) was added to each well and incubated at room temperature for 2 hours. Then 100 μl of antibodies in antibody dilution buffer containing PBS+1% BSA+1% normal goat serum+0.01% Tween 20 starting from 2 μg/ml and then serial dilutions were added to each well of the plate and incubated for 1 hours at room temperature. Afterward the plates were washed three times with 200 μl of PBS+0.1% Tween20 followed by adding 100 μl/well 1:10000 Goat anti mouse IgG-HRP (abcam), and incubate for 1 hour at room temperature. They were then washed 3× with PBS+0.1% Tween20. Finally, 100 µl/well of TMB (Pierce) was added to each well and after several minutes add 50 μl of stop solution to each well. The plates were read on a Multiscan FC microplate reader (Thermo Scientific) at […].

HGREM1-His (ACRO) [3] = molecular target: T2, HGREM1-His (ACRO); test: blocking ELISA, Human Gremlin-1 binding to BMP2; column Percentage
Description: (§3) In addition, the ability of serial dilutions of antibodies provided herein to block Gremlin binding to human BMP2/4/7 was also examined via ELISA. Plates were coated with recombinant human BMP2/4/7 (0.5 μg/ml) overnight and then serial dilutions of antibodies were incubated with 1 μg/ml of human Gremlin-his modified for 1 h at RT before this complex was added to coated plates and allowed to incubate for an additional hour at RT. The plates were then washed and added with anti-his HRP (GenScript). Plates were then developed with a TMB solution and stopped by adding stop solution. The plates were read on a plate reader at 450 nm. […] The chimeric anti-gremlin 1 antibodies (69H5-chi) and chimeric anti-gremlin 1 antibodies (22F1-chi) also can inhibit the binding of gremlin to BMP2 and BMP4 (see, FIG. 3E and FIG. 3F). The chimeric anti-gremlin 1 antibodies (56C11-chi) can inhibit the binding of gremlin to BMP2 (see, FIG. 3E).

HGREM1-His (ACRO) [4] = molecular target: T2, HGREM1-His (ACRO); test: blocking ELISA, Human Gremlin-1 binding to BMP2; column OD450
Description: as §3

HGREM1-His (ACRO) [5] = molecular target: T2, HGREM1-His (ACRO); test: blocking ELISA, Human Gremlin-1 binding to BMP7; column OD450
Description: as §3

Mouse Gremlin-His (R&D) [6] = molecular target: T3, Mouse Gremlin-His (R&D); test: ELISA, coated mouse gremlin (R&D)
Description: as §2

HGREM1-His (ACRO) [7] = molecular target: T2, HGREM1-His (ACRO); test: blocking ELISA, Human Gremlin-1 binding to BMP4; column OD450
Description: as §3

HGREM1-His (ACRO) [8] = molecular target: T2, HGREM1-His (ACRO); test: blocking ELISA, Human Gremlin-1 binding to BMP4; column Percentage
Description: as §3

HGREM1-His (ACRO) [9] = molecular target: T2, HGREM1-His (ACRO); test: blocking ELISA, Human Gremlin-1 binding to FGFR1
Description: Next, 0.25 μg/ml of gremlin was selected to test the blocking activity. The ability of antibodies to block Gremlin binding to human FGFR1-Fc was examined via ELISA. Plates were coated with recombinant FGFR1-Fc (2 μg/ml) overnight and then serial dilutions of antibodies were incubated with 0.25 μg/ml of human Gremlin-his modified for 1 h at RT before this complex was added to coated plates and allowed to incubate for an additional hour at RT. The plates were then washed and added with anti-his HRP (GenScript). Plates were then developed with a TMB solution and stopped by adding stop solution. The plates were read on a plate reader at 450 nm. […] Humanized anti-GREM1 antibodies provided herein (e.g., Hu14E3, Hu22F1) are expected to show the similar technical effect as their chimeric counterparts in blocking the binding of hGREM1 to FGFR1.

HGREM1-His (ACRO) [10] = molecular target: T2, HGREM1-His (ACRO); test: ELISA on coated Gremlin-his (column Gremlin)
Description: (§4) Binding affinities to hGREM1 and XM5 were also compared. Briefly, XM5-Fc or Gremlin-his […] was coated. 100 μl of block solution consisting of PBS+1% BSA+1% normal goat serum+0.5% Tween 20 (Sigma) was added to each well and incubated at room temperature for 2 hours. 4-fold serial antibody dilution from 2 μg/ml were added. Afterward the plates were washed three times with 200 ul of PBS+0.1% Tween20 followed by adding 100 μl/well 1:10000 Goat anti mouse IgG-HRP (abeam), and incubate for 1 hour at room temperature. They were then washed 3× with PBS+0.1% Tween20. Finally, 100 μl/well of TMB (InnoReagents) was added to each well and after 2 minutes add 50 ul of stop solution to each well. The plates were read on a Multiscan FC microplate reader (Thermo Scientific) at […]. The EC50 values were show in table below.

HGREM1-His (ACRO) [11] = molecular target: T2, HGREM1-His (ACRO); test: blocking ELISA, Human Gremlin-1 binding to BMP7; column Percentage
Description: as §3

XM5-Fc = molecular target: T4, XM5-Fc; test: ELISA on coated XM5-Fc (column XM5)
Description: as §4

HGREM1-His (ACRO) [12] = molecular target: T2, HGREM1-His (ACRO); test: competition ELISA, Gremlin-his binding to coated BMP7
Mouse Gremlin-His (R&D) [13] = molecular target: T3, Mouse Gremlin-His (R&D); test: ELISA on coated Mouse Gremlin-his, anti-mouse IgG-HRP
Description: as §2

EC50 (DAN-his (Sinobiological)) [nM] | EC50 (HGREM1-His (ACRO) [1]) [nM] | EC50 (HGREM1-His (ACRO) [2]) [µg/mL] | IC50 (HGREM1-His (ACRO) [3]) [µg/mL] | IC50 (HGREM1-His (ACRO) [4]) [µg/mL] | IC50 (HGREM1-His (ACRO) [5]) [µg/mL] | EC50 (Mouse Gremlin-His (R&D) [6]) [µg/mL] | IC50 (HGREM1-His (ACRO) [7]) [µg/mL] | IC50 (HGREM1-His (ACRO) [8]) [µg/mL] | IC50 (HGREM1-His (ACRO) [9]) [µg/mL] | EC50 (HGREM1-His (ACRO) [10]) [µg/mL] | IC50 (HGREM1-His (ACRO) [11]) [µg/mL] | EC50 (XM5-Fc) [µg/mL] | maximal blocking percentage (HGREM1-His (ACRO) [12]) [%] | binding result (Mouse Gremlin-His (R&D) [13]) | Binder
0.0178 | 0.019 |  |  |  |  |  |  |  |  |  |  |  |  |  | chimeric antibody 67G11 (antibody, human IgG1, V domains shown) VH: QVQLQQSGAELARPGASVKLSCKASGYTFTSYGIGWVKQRTGQGLEWIGEIYPRSGNTYNNEKFKGKATLTADKSSRTVYMELRSLISEDSAVYFCAREGYSNNYYAMDYWGQGTSVTVFS VL: DVLMTQTPLSLPVSLGDQASISCRSSQSLVHSNGNTYLEWYLQKPGQSPKLLIYKVSNRFSGVPDRLSGSGSGTDFTLKISRVEAEDLGVYYCFQGSHVPFTFGSGTKLEIK
 |  | 0.00806 | 0.752 | 0.752 | 0.916 | 0.00851 | 0.397 | 0.396 | 2.79 | 0.0134 | 0.928 | 0.00712 | ≥ 50 |  | 42B9 (antibody, V domains shown, mouse hybridoma antibody; also called hybridoma 42B9) VH: QVQLQQSGAELARPGASVKLSCKASGYTFTSYGIGWVKQRTGQGLEWIGEIYPRSGNTYNNEKFKGKATLTADKSSRTVYMELRSLISEDSAVYFCAREGYSNNYYAMDYWGQGTSVTVFS VL: DVLMTQTPLSLPVSLGDQASISCISSQSLVHSNGNTYLEWYLQKPGLSPKLLIYKVSNRFSGVPDRLSGSGSGTDFTLRISRVEAEDLGVYYCFQGSHVPFTFGSGTKLEIK
 |  | 0.106 |  |  |  |  |  |  |  |  |  |  |  | no binding | 69H5 (antibody, V domains shown, mouse hybridoma antibody; also called hybridoma 69H5) VH: EVQLQQSGAELVRPGASVKLSCTASGFNIKDDYMHWVKRRPEQGLEWIGWIDPENGDTEYASKFQGKATITADTSSNTAYLQLSSLTSEDTAVYYCTTWATVPDFDYWGQGTTLTVSS VL: DIVMTQSPSSLAMSVGQKVTMSCKSSQSLLNRSNQKNYLAWYQQKPGQSPKLLVHFTSTRESGVPDRFIGSGSGTDFTLTISNLQAEDLADYFCQQHYSTPFTFGSGTKLEIK
